Consider 2 molecules from article PMC8674125, “Analysis of Il36a induction by C/EBPβ via a half-CRE•C/EBP element in murine macrophages in dependence of its CpG methylation level”.

This series addresses C/EBPβ bZIP domain (mouse, UniProt P28033 221-296). The series is described as follows: fluorescence polarization; FP: 5 nM DNA, 20 mM Tris-HCl pH 7.5, 150 mM NaCl, 5% glycerol, 0.5 mM TCEP, 0.1 mg/ml BSA, 30 min, temperature not stated; EMSA conditions as in earlier work, not given. The conditions noted are these: protein: recombinant; tags: N-terminal 6xHis (pET-45b); chain copies: 2; label: 5'-FAM on strand 1; blunt. A general note: In fluorescence polarisation assays a small probe gives low polarisation when free and higher when bound to something large.

C/EBPβ bZIP domain, sequence (P28033 221-296): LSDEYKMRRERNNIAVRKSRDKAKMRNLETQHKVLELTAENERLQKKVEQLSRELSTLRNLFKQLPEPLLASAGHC

B1: FP_CREBmeth (methylated half-CRE•C/EBP Il36a) (dsDNA)
DNA 1: CATCTTACGTCACCT
DNA 2: AGGTGACGTAAGATG
modifications: 5-methyl-C (mC) at position 8 of strand 1 and position 7 of strand 2
What is called Kd is the concentration at which binding is half-saturated. Regarding B1, the dissociation constant (Kd) was 100 ± 30 nM.

B2: FP_CREB (unmethylated half-CRE•C/EBP Il36a) (dsDNA)
DNA 1: CATCTTACGTCACCT
DNA 2: AGGTGACGTAAGATG
As for B2, the Kd turned out to be 80 ± 30 nM.
